These results are taken from patent publication US20160038571A1.

In one assay the target is calcineurin (CNA/B) (UniProt Q08209). The experiment in a line: ITC. For orientation: In ITC the heat of successive injections is recorded.
Assay [1] addresses pre-formed RCAN1^128-164:calcineurin complex, Q08209. The experiment in a line: ITC, peptide titrated into the pre-formed RCAN1^128-164:calcineurin complex.

Consider “RCAN1^128-192 (from UniProt P53805 183-247)”, for which the Kd in the assay with calcineurin (CNA/B) is 300 nM.

Regarding “RCAN1^89-197 (from UniProt O35847 89-142)”, in the assay with calcineurin (CNA/B), the equilibrium dissociation constant (Kd) came out at 10 nM.

Regarding “RCAN1 construct with the PxIxIT (SEQ ID NO: 9) motif deleted”, the fold decrease in binding affinity with calcineurin (CNA/B) was found to be 220 fold.

On to “RCAN1 mutant HLAPP (SEQ ID NO: 16) →AAAAA (SEQ ID NO: 17) (from UniProt P53805 56-252)”, for which, in the assay with calcineurin (CNA/B), the fold decrease in Kd (against unmutated RCAN1) is 2.5 fold.

On to “RCAN1 mutant PSVVVH (SEQ ID NO: 13) →ASAVAA (SEQ ID NO: 18) (from UniProt P53805 56-252)”, for which, in the assay with calcineurin (CNA/B), the fold decrease in Kd (against unmutated RCAN1) is 220 fold.

RPKPKIIQTRRPEYT (modifications not checked) [peptide consisting of RCAN1^178-192 that includes the TxxP (SEQ ID NO: 11) site]: the dissociation constant (Kd) in assay [1] turned out to be 15000 nM.

As a reminder, the Kd is the free concentration of one partner at which half of the binding sites on the other are occupied at equilibrium, for simple one-to-one binding.
